From publication PMC8748919, “Dynamics and mechanism of dimer dissociation of photoreceptor UVR8” (Nature Communications, 2022)

Target: the molecule itself
Assay: SEC; dimer/monomer state of the purified protein before UV irradiation; 150 mM NaCl, 25 mM Tris-HCl, pH 8.0

Row | Protein | binding result
1 | UVR8 W250 single-Trp mutant (receptor, Arabidopsis thaliana, UniProt Q9FN03 1-440, looked up, UVR8, Arabidopsis thaliana; mutant plasmid built on the wild-type plasmid; also called W250F; source: E. coli BL21-DE3, purified (Ni-Sepharose, Source-15Q)) MAEDMAADEVTAPPRKVLIISAGASHSVALLSGDIVCSWGRGEDGQLGHGDAEDRPSPTQLSALDGHQIVSVTCGADHTVAYSQSGMEVYSWGWGDFGRLGHGNSSDLFTPLPIKALHGIRIKQIACGDSHCLAVTMEGEVQSWGRNQNGQLGLGDTEDSLVPQKIQAFEGIRIKMVAAGAEHTAAVTEDGDLYGWGWGRYGNLGLGDRTDRLVPERVTSTGGEKMSMVACGWRHTISVSYSGALYTYGFSKYGQLGHGDLEDHLIPHKLEALSNSFISQISGGWRHTMALTSDGKLYGWGWNKFGQVGVGNNLDQCSPVQVRFPDDQKVVQVSCGWRHTLAVTERNNVFAWGRGTNGQLGIGESVDRNFPKIIEALSVDGASGQHIESSNIDPSSGKSWVSPAERYAVVPDETGLTDGSSKGNGGDISVPQTDVKRVRI | binds
2 | UVR8 W285D/W233K (receptor, Arabidopsis thaliana, UniProt Q9FN03 1-440, looked up, UVR8, Arabidopsis thaliana; mutant plasmid built on the wild-type plasmid; source: E. coli BL21-DE3, purified (Ni-Sepharose, Source-15Q)) MAEDMAADEVTAPPRKVLIISAGASHSVALLSGDIVCSWGRGEDGQLGHGDAEDRPSPTQLSALDGHQIVSVTCGADHTVAYSQSGMEVYSWGWGDFGRLGHGNSSDLFTPLPIKALHGIRIKQIACGDSHCLAVTMEGEVQSWGRNQNGQLGLGDTEDSLVPQKIQAFEGIRIKMVAAGAEHTAAVTEDGDLYGWGWGRYGNLGLGDRTDRLVPERVTSTGGEKMSMVACGKRHTISVSYSGALYTYGWSKYGQLGHGDLEDHLIPHKLEALSNSFISQISGGDRHTMALTSDGKLYGWGWNKFGQVGVGNNLDQCSPVQVRFPDDQKVVQVSCGWRHTLAVTERNNVFAWGRGTNGQLGIGESVDRNFPKIIEALSVDGASGQHIESSNIDPSSGKSWVSPAERYAVVPDETGLTDGSSKGNGGDISVPQTDVKRVRI | binds
3 | UVR8 R234 mutated to neutral (Q) (receptor, Arabidopsis thaliana, UniProt Q9FN03 1-440, looked up, UVR8, Arabidopsis thaliana; mutant plasmid built on the wild-type plasmid; also called R234Q; source: E. coli BL21-DE3, purified (Ni-Sepharose, Source-15Q)) MAEDMAADEVTAPPRKVLIISAGASHSVALLSGDIVCSWGRGEDGQLGHGDAEDRPSPTQLSALDGHQIVSVTCGADHTVAYSQSGMEVYSWGWGDFGRLGHGNSSDLFTPLPIKALHGIRIKQIACGDSHCLAVTMEGEVQSWGRNQNGQLGLGDTEDSLVPQKIQAFEGIRIKMVAAGAEHTAAVTEDGDLYGWGWGRYGNLGLGDRTDRLVPERVTSTGGEKMSMVACGWQHTISVSYSGALYTYGWSKYGQLGHGDLEDHLIPHKLEALSNSFISQISGGWRHTMALTSDGKLYGWGWNKFGQVGVGNNLDQCSPVQVRFPDDQKVVQVSCGWRHTLAVTERNNVFAWGRGTNGQLGIGESVDRNFPKIIEALSVDGASGQHIESSNIDPSSGKSWVSPAERYAVVPDETGLTDGSSKGNGGDISVPQTDVKRVRI | binds
4 | UVR8 D129 mutated to neutral (N) (receptor, Arabidopsis thaliana, UniProt Q9FN03 1-440, looked up, UVR8, Arabidopsis thaliana; mutant plasmid built on the wild-type plasmid; also called D129N; source: E. coli BL21-DE3, purified (Ni-Sepharose, Source-15Q)) MAEDMAADEVTAPPRKVLIISAGASHSVALLSGDIVCSWGRGEDGQLGHGDAEDRPSPTQLSALDGHQIVSVTCGADHTVAYSQSGMEVYSWGWGDFGRLGHGNSSDLFTPLPIKALHGIRIKQIACGNSHCLAVTMEGEVQSWGRNQNGQLGLGDTEDSLVPQKIQAFEGIRIKMVAAGAEHTAAVTEDGDLYGWGWGRYGNLGLGDRTDRLVPERVTSTGGEKMSMVACGWRHTISVSYSGALYTYGWSKYGQLGHGDLEDHLIPHKLEALSNSFISQISGGWRHTMALTSDGKLYGWGWNKFGQVGVGNNLDQCSPVQVRFPDDQKVVQVSCGWRHTLAVTERNNVFAWGRGTNGQLGIGESVDRNFPKIIEALSVDGASGQHIESSNIDPSSGKSWVSPAERYAVVPDETGLTDGSSKGNGGDISVPQTDVKRVRI | binds
5 | UVR8 W285/233/94/337G (receptor, Arabidopsis thaliana, UniProt Q9FN03 1-440, looked up, UVR8, Arabidopsis thaliana; mutant plasmid built on the wild-type plasmid; source: E. coli BL21-DE3, purified (Ni-Sepharose, Source-15Q)) MAEDMAADEVTAPPRKVLIISAGASHSVALLSGDIVCSWGRGEDGQLGHGDAEDRPSPTQLSALDGHQIVSVTCGADHTVAYSQSGMEVYSWGGGDFGRLGHGNSSDLFTPLPIKALHGIRIKQIACGDSHCLAVTMEGEVQSWGRNQNGQLGLGDTEDSLVPQKIQAFEGIRIKMVAAGAEHTAAVTEDGDLYGWGWGRYGNLGLGDRTDRLVPERVTSTGGEKMSMVACGGRHTISVSYSGALYTYGWSKYGQLGHGDLEDHLIPHKLEALSNSFISQISGGGRHTMALTSDGKLYGWGWNKFGQVGVGNNLDQCSPVQVRFPDDQKVVQVSCGGRHTLAVTERNNVFAWGRGTNGQLGIGESVDRNFPKIIEALSVDGASGQHIESSNIDPSSGKSWVSPAERYAVVPDETGLTDGSSKGNGGDISVPQTDVKRVRI | binds
6 | UVR8 W302 single-Trp mutant (receptor, Arabidopsis thaliana, UniProt Q9FN03 1-440, looked up, UVR8, Arabidopsis thaliana; mutant plasmid built on the wild-type plasmid; also called W302F; source: E. coli BL21-DE3, purified (Ni-Sepharose, Source-15Q)) MAEDMAADEVTAPPRKVLIISAGASHSVALLSGDIVCSWGRGEDGQLGHGDAEDRPSPTQLSALDGHQIVSVTCGADHTVAYSQSGMEVYSWGWGDFGRLGHGNSSDLFTPLPIKALHGIRIKQIACGDSHCLAVTMEGEVQSWGRNQNGQLGLGDTEDSLVPQKIQAFEGIRIKMVAAGAEHTAAVTEDGDLYGWGWGRYGNLGLGDRTDRLVPERVTSTGGEKMSMVACGWRHTISVSYSGALYTYGWSKYGQLGHGDLEDHLIPHKLEALSNSFISQISGGWRHTMALTSDGKLYGWGFNKFGQVGVGNNLDQCSPVQVRFPDDQKVVQVSCGWRHTLAVTERNNVFAWGRGTNGQLGIGESVDRNFPKIIEALSVDGASGQHIESSNIDPSSGKSWVSPAERYAVVPDETGLTDGSSKGNGGDISVPQTDVKRVRI | binds
